In patent publication US20090111753A1, “Nogo-A Polypeptide Fragments, Variant Nogo Receptor-1 Polypeptides, and Uses Thereof” (Yale University, priority 2004, published 2009):
Where a chain is given by its changes, count along the chain named. No end group written: not given here.

B1: human NgR1 alanine mutant 211, 213, 237, 256, 259, 284 (receptor)
chain: CPGACVCYNEPKVTTSCPQQGLQAVPVGIPAASQRIFLHGNRISHVPAASFRACRNLTILWLHSNVLARIDAAAFTGLALLEQLDLSDNAQLRSVDPATFHGLGRLHTLHLDRCGLQELGPGLFRGLAALQYLYLQDNALQALPDDTFRDLGNLTHLFLHGNRISSVPERAFRGLHSLDRLLLHANAVAHVHPHAFRDLGRLMTLYLFANALSALPTEALAPLRALQYLALNANPWVCDCRARPLWAWLQKFRGSSSAVPCSLPQRLAGRDLKRLAANDLQGCAVATGPYHPIWTGRATDEEPLGLPKCCQPDAADKASVLEPGRPASAGNALKGRVPPGDSPPGNGSGPRHINDSPFGTLPGSAEPPLTAVRPEGSEPPGFPTSGPRRRPGCSRKNRTRSHCRLGQAGSGGGGTGDSEGSGALPSLTCSLTPLGLALVLWTVLGPC
B2: human NgR1 alanine mutant 189, 191, 211, 213, 237, 256, 259, 284 (receptor)
chain: B1 chain with R163A, S165A
B3: a.a. 181-864 (AmNg A): AP fusion protein of human Amino-Nogo fragment A, aa 181-864 of Nogo-A (protein)
chain: SSGSVDETLFALPAASEPVIRSSAENMDLKEQPGNTISAGQEDFPSVLLETAASLPSLSPLSAASFKEHEYLGNLSTVLPTEGTLQENVSEASKEVSEKAKTLLIDRDLTEFSELEYSEMGSSFSVSPKAESAVIVANPREEIIVKNKDEEEKLVSNNILHNQQELPTALTKLVKEDEVVSSEKAKDSFNEKRVAVEAPMREEYADFKPFERVWEVKDSKEDSDMLAAGGKIESNLESKVDKKCFADSLEQTNHEKDSESSNDDTSFPSTPEGIKDRSGAYITCAPFNPAATESIATNIFPLLGDPTSENKTDEKKIEEKKAQIVTEKNTSTKTSNPFLVAAQDSETDYVTTDNLTKVTEEVVANMPEGLTPDLVQEACESELNEVTGTKIAYETKMDLVQTSEVMQESLYPAAQLCPSFEESEATPSPVLPDIVMEAPLNSAVPSAGASVIQPSSSPLEASSVNYESIKHEPENPPPYEEAMSVSLKKVSGIKEEIKEPENINAALQETEAPYISIACDLIKETKLSAEPAPDFSDYSEMAKVEQPVPDHSELVEDSSPDSEPVDLFSDDSIPDVPQKQDETVMLVKESLTETSFESMIEYENKEKLSALPPEGGKPYLESFKLSLDNTKDTLLPDEVSTLSKKEKIPLQMEELSTAVYSNDDLFISKEAQIRETETFSDSSP
modifications: left off: large carriers
notes: AP fusion protein of human Amino-Nogo fragment A, aa 181-864 of Nogo-A

Assays:
E13 chick DRG neurons = assay: AP fusion protein binding to dissociated E13 chick DRG neurons
Description: FIG. 1E. Binding of AP fused Amino-Nogo fragments to dissociated E13 chick DRG neurons. Conditioned media from HEK293T cells containing AP fusion protein as indicated were applied to dissociated E13 chick DRG neurons and bound AP was stained.
If these Amino-Nogo fragments are to play a role in regulating neurite outgrowth then they would be expected to bind to neuronal processes. Previously, we have shown that AP-Nogo-66 binds to NgR on DRG processes (Fournier, A. E., et al., Nature 409:341-346 (2001)).

AP-B4C = molecular target: T1, AP-B4C (Homo sapiens, UniProt Q9NQC3); assay: Binding of AP-B4C to COS-7 cells expressing NgR mutants; parameters: key: ++: WT level; +: weaker than wild type; trace binding; −: no binding; settings: AP-B4C 10 nM; level of binding compared to wild type NgR
T1 construct: a.a; 950-1018 (AmNg B4C); made in house; host or cells: AP ligand: HEK293T conditioned medium; NgR mutants: COS-7
T1 sequence (Q9NQC3 950-1018): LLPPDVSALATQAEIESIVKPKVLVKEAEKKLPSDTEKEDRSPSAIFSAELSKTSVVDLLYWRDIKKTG

AP-Nogo66 = molecular target: T2, AP-Nogo66 (Homo sapiens, UniProt Q9NQC3); assay: Binding of AP-Nogo66 to COS-7 cells expressing NgR mutants; parameters: key: ++: WT level; +: weaker than wild type; trace binding; −: no binding; settings: AP-Ng66 5 nM; level of binding compared to wild type NgR
T2 construct: made in house; NgR mutants: COS-7
T2 sequence (Q9NQC3 1055-1120 limits assumed): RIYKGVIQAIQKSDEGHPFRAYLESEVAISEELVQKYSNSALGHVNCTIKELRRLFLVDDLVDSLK
Method in brief: (§1)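 COS-7 cells expressing Ala-substituted human NgR1 mutants incubated with AP-fused ligands at near-Kd levels (AP-Ng66 5 nM, AP-B4C66 0.5 nM, AP-Lingo-1 10 nM, AP-OMGP 10 nM). Bound AP stained and measured as % of wild-type NgR; graded ++/+/tr/−.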

AP-Lingo-1 = molecular target: T3, AP-Lingo-1 (Homo sapiens, UniProt Q96FE5); assay: Binding of AP-Lingo-1 to COS-7 cells expressing NgR mutants; parameters: key: ++: WT level; +: weaker than wild type; trace binding; −: no binding; settings: AP-Lingo-1 10 nM; level of binding compared to wild type NgR
T3 construct: made in house; NgR mutants: COS-7
T3 sequence (Q96FE5 40-538 limits assumed): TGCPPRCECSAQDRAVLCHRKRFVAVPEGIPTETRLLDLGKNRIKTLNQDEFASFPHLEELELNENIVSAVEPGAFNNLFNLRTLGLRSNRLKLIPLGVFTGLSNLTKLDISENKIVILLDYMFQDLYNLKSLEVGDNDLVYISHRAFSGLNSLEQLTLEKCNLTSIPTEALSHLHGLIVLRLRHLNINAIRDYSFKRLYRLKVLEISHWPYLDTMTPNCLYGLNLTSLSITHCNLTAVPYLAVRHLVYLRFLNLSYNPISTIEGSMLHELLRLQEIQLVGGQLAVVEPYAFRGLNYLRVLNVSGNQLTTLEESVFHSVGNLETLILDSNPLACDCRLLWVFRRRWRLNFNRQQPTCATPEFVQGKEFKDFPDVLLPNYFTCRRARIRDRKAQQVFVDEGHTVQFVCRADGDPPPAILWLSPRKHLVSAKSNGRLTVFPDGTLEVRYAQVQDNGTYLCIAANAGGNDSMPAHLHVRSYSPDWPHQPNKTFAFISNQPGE
Method in brief: as §1

NgR ligands = assay: Binding of alanine substituted NgR mutants to NgR ligands, summary categories; settings: AP-Nogo66, AP-B4C, AP-B4C66, AP-Lingo-1, AP-OMgp and AP-MAG; compared to wild type NgR
Method in brief: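 Human NgR1 template; 74 mutants with 1-8 solvent-exposed charged surface residues (within 5 Å) Ala-substituted, plus glycosylation-site mutants and D259N polymorphism. Mutants tested for binding of AP-tagged Nogo66, Amino-Nogo-B4C, B4C66, MAG, OMgp and Lingo-1; each classed as losing all, keeping all, or selective ligand binding.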

AP-B4C66 = assay: Binding of AP-B4C66 to COS-7 cells expressing NgR mutants; parameters: key: ++: WT level; +: weaker than wild type; trace binding; −: no binding; settings: AP-B4C66 0.5 nM; level of binding compared to wild type NgR
Method in brief: as §1

AP-MAG = assay: Binding of AP-MAG to COS-7 cells expressing NgR mutants; parameters: key: ++: WT level; +: weaker than wild type; trace binding; −: no binding; settings: AP-MAG 30 nM; level of binding compared to wild type NgR
[1] = molecular target: T4, AP fusion protein with the B4C fragment of Amino-Nogo-A fused directly to Nogo-66 (human, UniProt Q9NQC3 1055-1120); assay: AP-ligand binding, COS-7
T4 construct: domain: Nogo-66; also called AP-B4C66; AP-B4C-66; not shown: alkaline phosphatase (AP), vector pcAP6
T4 sequence: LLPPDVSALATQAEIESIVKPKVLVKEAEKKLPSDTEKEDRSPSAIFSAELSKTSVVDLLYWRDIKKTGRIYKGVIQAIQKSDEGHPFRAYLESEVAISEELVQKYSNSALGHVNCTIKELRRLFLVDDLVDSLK

[2] = molecular target: T5, AP-fused Amino-Nogo fragment B4C (a.a. 950-1018) (human, UniProt Q9NQC3 950-1018); assay: AP-ligand binding, COS-7
T5 construct: also called AmNg B4C; AP-B4C; not shown: alkaline phosphatase (AP), vector pcAP6
T5 sequence: T1 sequence (Q9NQC3 950-1018)

AP-Nogo-66 = molecular target: T6, AP-Nogo-66 (UniProt Q9NQC3 1055-1120); assay: AP-ligand binding, COS-7
T6 construct: domain: Nogo-66; construct described elsewhere (Fournier 2001); also called AP-Ng66; Ng66; not shown: alkaline phosphatase (AP); construct described elsewhere
T6 sequence (looked up): T2 sequence (Q9NQC3 1055-1120 limits assumed)

AP-OMgp = assay: Binding of AP-OMgp to COS-7 cells expressing NgR mutants; parameters: key: ++: WT level; +: weaker than wild type; trace binding; −: no binding; settings: AP-OMGP 10 nM; level of binding compared to wild type NgR
Method in brief: as §1

NgR = molecular target: T7, NgR (Homo sapiens, UniProt Q9BZR6); assay: AP fusion protein binding to NgR expressing COS-7 cells; settings: AP fused Amino-Nogo fragments in conditioned media on NgR expressing COS-7 cells; 'No binding at' cells continue on the next line: AmNg A 150 nM; a.a. 1000-1018, a.a. 1005-1018, Amino of NgC 25 nM; a.a. 950-1004 50 nM; Amino of NgB 100 nM
T7 construct: expressed in transfected cells; host or cells: COS-7
T7 sequence (Q9BZR6 27-447): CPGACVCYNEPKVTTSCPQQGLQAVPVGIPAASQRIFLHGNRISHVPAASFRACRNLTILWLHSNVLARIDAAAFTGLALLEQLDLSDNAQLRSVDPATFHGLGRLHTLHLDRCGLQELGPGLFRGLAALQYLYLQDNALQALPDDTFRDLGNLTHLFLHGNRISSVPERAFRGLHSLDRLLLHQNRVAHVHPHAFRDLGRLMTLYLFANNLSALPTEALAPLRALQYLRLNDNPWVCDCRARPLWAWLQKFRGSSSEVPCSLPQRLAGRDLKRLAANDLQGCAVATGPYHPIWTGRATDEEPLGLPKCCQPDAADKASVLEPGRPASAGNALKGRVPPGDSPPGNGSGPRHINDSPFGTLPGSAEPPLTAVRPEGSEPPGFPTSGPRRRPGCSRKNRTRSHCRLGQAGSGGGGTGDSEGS
Description: Several alkaline phosphatase (AP) fusion proteins containing various Nogo-A segments derived from regions between the amino terminus and the first hydrophobic segment were examined to identify the mechanism of Amino-Nogo-A action. To generate additional AP fusion proteins, human amino Nogo fragments were amplified and ligated to the pcAP6 vector digested with restriction enzymes EcoRI and XhoI as described (Fournier, A. E., et al., Nature 409:341-346 (2001)). Plasmids were then transfected into HEK293T cells and conditioned media were collected after 7 days. None of these fragments bind with high affinity to non-transfected COS-7 cells. […] This binding is saturable with a Kd indistinguishable from that for AP-Nogo-66 association with NgR (Table I). To better define the region responsible for Amino-Nogo interaction with NgR, a range of truncation mutants of Amino-Nogo were examined as AP fusion proteins. […] In fact, the NgR-interacting segment of Amino-Nogo is fully accounted for in the extreme carboxyl 24 amino acids (aa 995-1018, Amino-Nogo-A-24) (Table I and FIG. 1D). […] We named this domain (aa 995-1013) as Amino-Nogo-A-19.
Binding Kds for AP fused Amino-Nogo fragments were measured by applying conditioned media containing AP fusion protein to NgR expressing COS-7 cells. Bound AP was stained and measured.
It has been recognized that the Amino-Nogo-A protein inhibits non-neuronal cell spreading and axonal outgrowth when the protein is substrate bound (Chen, M. S., et al., Nature 403:434-439 (2000); Fournier, A. E., et al., Nature 409:341-346 (2001)). […] The later domain has been termed Δ20. To determine whether the NgR-interacting aa of Amino-Nogo-A described in Example 1 regulate cell spreading and axonal outgrowth, various fragments were expressed as GST fusion proteins and purified from E. coli. To generate GST fusion proteins, amino Nogo fragments were cloned in pGEX2T (Amersham Pharmacia). Native and soluble GST fusion proteins were expressed and purified as described (GrandPre, T., et al., Nature 403:439-444 (2000)). COS-7 binding assays were done as described (Fournier, A. E., et al., Nature 409:341-346 (2001)). Bound AP to COS-7 cells was measured using NIH image software. Fibroblast spreading and cDRG outgrowth assay were done as described (Fournier, A. E., et al., Nature 409:341-346 (2001)) with some modifications. Briefly, 50 μl of purified GST fusion protein or peptides diluted in PBS was pipetted into polylysine precoated 96 well plates (Becton Dickson Biocoat plates) and dried overnight at room temperature. For fibroblast spreading assay, subconfluent COS-7 cells were then plated for 1 hour in serum containing medium before fixation and staining with rho damine-phalloidin.

Molecule	binding to DRG axons/neurons (E13 chick DRG neurons)	B4C (AP-B4C)	Ng66 (AP-Nogo66)	Lingo-1 (AP-Lingo-1)	ligand binding category of NgR mutant (Table II) (NgR ligands)	B4C-66 (AP-B4C66)	MAG (AP-MAG)	binding result [1]	binding result [2]	binding result (AP-Nogo-66)	OMgp (AP-OMgp)	NgR Kd (nM) (NgR)
IFSAELSKTSVVDLLYWRDIKKTG (not fully specified) [a.a. 995-1018 (Amino-Nogo-A-24), AP fusion protein of Nogo-A aa 995-1018]	binding to DRG axons											
B1		−	−	++	Differential binding	−	−	no binding	no binding	no binding	−	
B2		−	−	++	Differential binding	−		no binding	no binding	no binding	−	
B3	binds to DRG axons											No Binding
